Where a chain is given by its changes, count along the chain named. Names and notes keep the numbering of the source.
B1: pT37 4E-BP2 (protein)
chain: MSSSAGSGHQPSQSRAIPTRTVAISDAAQLPHDYCTTPGGTLFSTAPGGTRIIYDRKFLLDRRNAPMAQAPPCHLPNIPGVTAPGTLIEDSKVEVNNLNNLNNHDRKHAVGDDAQFEMDI
modifications: phospho-Thr37
B2: G39V/G48V Five-phospho 4E-BP2 (protein)
chain: B1 chain with G39V, A46T, G48V, A65S, A70T, A83S
modifications: phospho-Thr37, phospho-Thr46, phospho-Ser65, phospho-Thr70, phospho-Ser83 (legend prints pT36, taken as a typo for pT37)
B3: pT37 pT46 (Two-phospho) 4E-BP2 (protein)
chain: B1 chain with A46T
modifications: phospho-Thr37, phospho-Thr46
B4: Non-phospho 4E-BP2 (protein)
chain: B1 chain with A46T, A65S, A70T, A83S
B5: pS65 pT70 pS83 (T37A/T46A) 4E-BP2 (protein)
chain: B1 chain with T37A, A65S, A70T, A83S
modifications: phospho-Ser65, phospho-Thr70, phospho-Ser83
B6: pT46 4E-BP2 (protein)
chain: B1 chain with T37A, A46T
modifications: phospho-Thr46

Each binder was assayed against eukaryotic translation initiation factor 4E (eIF4E) (UniProt P06730 1-217) (assay: ITC).
Sequence of eukaryotic translation initiation factor 4E (eIF4E) (P06730 whole entry): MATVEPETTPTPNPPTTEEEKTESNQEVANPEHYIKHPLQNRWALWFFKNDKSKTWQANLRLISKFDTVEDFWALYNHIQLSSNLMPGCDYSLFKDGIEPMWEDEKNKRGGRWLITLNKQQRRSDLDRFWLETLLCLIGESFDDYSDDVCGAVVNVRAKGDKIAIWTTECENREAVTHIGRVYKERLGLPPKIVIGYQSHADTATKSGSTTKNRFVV

Going from B1 to B2, the Kd rises from 7.2 nM to 36.1 nM (5-fold).

Going from B3 to B4, the Kd falls from 267 nM to 3.2 nM (83-fold).

First: B5
Second: B6
The Kd of the first is 4.7-fold higher: 11.3 nM for the first, 2.4 nM for the second. The second binds more tightly here.

Reference: paper PMC7305185 (2020)
